Biological target: human recombinant adrenomedullin receptor (CRLR+RAMP3) (Homo sapiens)

Substance: human Adrenomedullin (hADM 1-52) (peptide)
- EC50 (read off the curve): 1 nM

Source: patent US20140314775A1
